Substitutions are numbered along the chain they refer to.
B1: anti-BCMA sdAb BCMA6 (VHH, part only)
VHH: QMQLVESGGGSVQAGGSLRLSCTASGYTFDDSAMGWYRQAPGNECELVSSISSDGSTYYSDSVKGRFTISQDNAKNTMYLQMNSLKPEDTAVYSCAASSGEDGGSWSTPCHFFGYWGQGTQVTVSS
modifications: affinity tag
B2: anti-BCMA sdAb BCMA11 (VHH, part only)
VHH: QVQLVESGGGVVQPGGSLRLSCAASGFAFSNYAMTWGRQAPGQRLEWVSTIDSGGGSTTYSDSVKGRFTISRDNAKNTLYLQLNNLKSEDTAVYYCSENVDCNGDYCYRANYWGQGTQVTVSS
modifications: affinity tag
B3: anti-BCMA sdAb BCMA7 (VHH, part only)
VHH: QVHLMESGGGSVQSGGSLRLSCAASGYTYSSYCMAWFRQAPGKEREGVAAIASDGSTYYTDSVKGRFTISQDNAKNTLYLQMNSLKPEDTAMYYCGADPVGCSWPDYWGQGTQVTVSS
modifications: affinity tag
B4: anti-BCMA sdAb BCMA8 (VHH, part only)
VHH: QVQLVESGGGSVQAGGSLRLSCAASGGTRSWNYMAWFRQAPGKEREDVAIIDNVGSTRYADSVKGRFTISQDTAQNTLYLQMNSLKPEDTAMYYCAARVSWCEDPPCGFDYWGQGTQVTVSS
modifications: affinity tag
B5: anti-BCMA sdAb BCMA10 (VHH, part only)
VHH: QVQLAESGGGLVQPGGSLRLSCAGSGFTFSSYDMNWVRQAPGKGLERVSTTFNGDDGTNYADSVLGRFTASRDKAKNTLYLQMNSLKTEDTAVYYCAAAVPGVDWYDTTRYKYWGQGTQVTVSS
modifications: affinity tag
B6: anti-BCMA sdAb BCMA1 (VHH, part only)
VHH: QVQLVESGGGSVQAGGSLRLSCKASGAIYDTNCMAWFRQTPGKEREGVATIDLGNPITYYADSVKGRFTISRDNAKNTMYLQMNSLEPEDTAMYYCAATSWWPCTTFNAGYANWGQGTQVTVSS
modifications: affinity tag
B7: anti-BCMA sdAb BCMA13 (VHH, part only)
VHH: B6 VHH with Q3H, E87K, T105P, T106A, F107N, A109V
modifications: affinity tag
B8: anti-BCMA sdAb BCMA9 (VHH, part only)
VHH: QVQLVESGGGSVQAGGSLRLSCKSSGAPYSSNCMAWFRQTPGKGREGVATIDLASHDTYYADSVKGRFTISRDNAKNTMYLQMNSLKPEDTAMYYCAATSWWPCTTFNGGYANWGQGTQVTVSS
modifications: affinity tag
B9: anti-BCMA sdAb BCMA12 (VHH, part only)
VHH: B8 VHH with Q3H, P28T, G44E, D57G, N84S, S85G, K87R, M93L, N113S
modifications: affinity tag

Target: His-tagged human BCMA (ACRO Biosystems, Cat. #: BCA-H522y) (human)
Test: SPR (BIAcore T200) affinity ranking; crude sdAb captured via tag, antigen at 100 nM

His-tagged human BCMA (ACRO Biosystems, Cat. #: BCA-H522y) (human), sequence (Q02223 1-54): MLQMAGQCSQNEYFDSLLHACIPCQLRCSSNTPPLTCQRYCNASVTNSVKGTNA

Row | Kd [nM] | koff [s⁻¹] | kon [M⁻¹ s⁻¹] | Binder
1 | 4.9 | 0.026 | 5.4e+06 | B1
2 | 53 | 0.009 | 170000 | B2
3 | 46 | 0.1 | 2.3e+06 | B3
4 | 48 | 0.37 | 7.8e+06 | B4
5 | 47 | 0.13 | 2.8e+06 | B5
6 | 10 | 0.29 | 2.9e+07 | B6
7 | 77 | 0.053 | 690000 | B7
8 | 8.5 | 0.42 | 5e+07 | B8
9 | 23 | 0.025 | 1.1e+06 | B9

Target: Fc-fused Cynomolgus BCMA (ACRO Biosystems, Cat. #: BCA-C5253) (cynomolgus)
Test: as above

Row | Kd [nM] | koff [s⁻¹] | kon [M⁻¹ s⁻¹] | Binder
10 | 0.83 | 0.00091 | 1.1e+06 | B1
11 | 16 | 0.007 | 450000 | B2
12 | 43 | 0.056 | 1.3e+06 | B3
13 | 13 | 560 | – | B4
14 | 50 | 0.04 | 790000 | B5
15 | 0.64 | 0.00043 | 670000 | B6
16 | 13 | 0.018 | 1.4e+06 | B7
17 | 2.4 | 0.0015 | 650000 | B8
18 | 4.3 | 0.004 | 940000 | B9

Source: US20220265709A1
